Assays:
[1] = test system: HeLa Kyoto; assay: melting temperature (median over replicates), in situ; higher = more thermally stable
[2] = test system: HeLa Kyoto; assay: solubility change mitosis vs G1/S (difference of NP-40 vs SDS log2 ratios) (log2 ratio difference); higher = more soluble in mitosis
[3] = test system: HeLa Kyoto; assay: thermal stability score vs G1/S (z-score of summed log2 fold changes over temperatures); higher = more thermally stable than in G1/S
[4] = test system: HeLa Kyoto; assay: solubility in G1/S (NP-40 vs SDS abundance) (log2 ratio); higher = more soluble; settings: cell cycle stage: G1/S
[5] = cell cycle stage: early G1 (4.5 h after nocodazole release)
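Throughout, for melting temperature (median over replicates), in situ: HeLa Kyoto cells synchronized by double thymidine or nocodazole block, proteins quantified by TMT10plex mass spectrometry, three independent biological replicates.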
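Throughout, for solubility change mitosis vs G1/S (difference of NP-40 vs SDS log2 ratios): synchronized HeLa Kyoto cells (double thymidine block for G1/S, nocodazole release for mitosis), protein amounts in NP-40 versus SDS lysates quantified by mass spectrometry, three biological replicates.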
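Throughout, for solubility in G1/S (NP-40 vs SDS abundance): HeLa Kyoto cells arrested at G1/S by double thymidine block, proteins quantified by TMT10plex mass spectrometry in mild NP-40 versus SDS extracts, three biological replicates.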
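Throughout, for thermal stability score vs G1/S (z-score of summed log2 fold changes over temperatures): synchronized HeLa Kyoto cells, proteins quantified by TMT10plex mass spectrometry, three biological replicates, mitosis taken 0.5 h after nocodazole release, G1/S directly after double thymidine block.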

Chain of IRF2BP2 (chain, as listed by the source): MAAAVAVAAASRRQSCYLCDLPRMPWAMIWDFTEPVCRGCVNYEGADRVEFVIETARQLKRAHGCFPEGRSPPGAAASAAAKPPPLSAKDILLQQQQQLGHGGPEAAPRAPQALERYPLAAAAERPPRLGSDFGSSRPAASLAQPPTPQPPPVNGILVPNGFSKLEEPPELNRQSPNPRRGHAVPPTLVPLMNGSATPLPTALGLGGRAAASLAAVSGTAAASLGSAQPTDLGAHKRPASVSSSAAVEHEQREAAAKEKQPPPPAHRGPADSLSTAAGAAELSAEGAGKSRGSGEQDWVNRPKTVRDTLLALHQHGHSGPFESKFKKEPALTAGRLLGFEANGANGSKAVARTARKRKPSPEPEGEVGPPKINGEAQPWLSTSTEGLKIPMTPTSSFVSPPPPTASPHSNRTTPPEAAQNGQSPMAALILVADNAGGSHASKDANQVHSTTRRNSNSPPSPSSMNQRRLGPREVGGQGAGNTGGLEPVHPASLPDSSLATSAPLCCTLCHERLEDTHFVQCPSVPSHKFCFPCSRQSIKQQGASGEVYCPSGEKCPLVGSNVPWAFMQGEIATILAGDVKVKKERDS

Substance	melting temperature ([1]; cell cycle stage: G1/S) [°C]	melting temperature ([1]; cell cycle stage: mitosis) [°C]	solubility change mitosis (log2) [2]	thermal stability score [3, 5]	thermal stability score ([3]; cell cycle stage: mitosis)	solubility in G1/S (log2) [4]
MPSAKQRGSKGGHGAASPSEKGAHPSGGADDVAKKPPPAPQQPPPPPAPHPQQHPQQHPQNQAHGKGGHRGGGGGGGKSSSSSSASAAAAAAAASSSASCSRRLGRALNFLFYLALVAAAAFSGWCVHHVLEEVQQVRRSHQDFSRQREELGQGLQGVEQKVQSLQATFGTFESILRSSQHKQDLTEKAVKQGESEVSRISEVLQKLQNEILKDLSDGIHVVKDARERDFTSLENTVEERLTELTKSINDNIAIFTEVQKRSQKEINDMKAKVASLEESEGNKQDLKALKEAVKEIQTSAKSREWDMEALRSTLQTMESDIYTEVRELVSLKQEQQAFKEAADTERLALQALTEKLLRSEESVSRLPEEIRRLEEELRQLKSDSHGPKEDGGFRHSEAFEALQQKSQGLDSRLQHVEDGVLSMQVASARQTESLESLLSKSQEHEQRLAALQGRLEGLGSSEADQDGLASTVRSLGETQLVLYGDVEELKRSVGELPSTVESLQKVQEQVHTLLSQDQAQAARLPPQDFLDRLSSLDNLKASVSQVEADLKMLRTAVDSLVAYSVKIETNENNLESAKGLLDDLRNDLDRLFVKVEKIHEKV [CKAP4]	52	52.4	0.148	5.49	6.55	0.635
MEDLGENTMVLSTLRSLNNFISQRVEGGSGLDISTSAPGSLQMQYQQSMQLEERAEQIRSKSHLIQVEREKMQMELSHKRARVELERAASTSARNYEREVDRNQELLTRIRQLQEREAGAEEKMQEQLERNRQCQQNLDAASKRLREKEDSLAQAGETINALKGRISELQWSVMDQEMRVKRLESEKQELQEQLDLQHKKCQEANQKIQELQASQEARADHEQQIKDLEQKLSLQEQDAAIVKNMKSELVRLPRLERELKQLREESAHLREMRETNGLLQEELEGLQRKLGRQEKMQETLVGLELENERLLAKLQSWERLDQTMGLSIRTPEDLSRFVVELQQRELALKDKNSAVTSSARGLEKARQQLQEELRQVSGQLLEERKKRETHEALARRLQKRVLLLTKERDGMRAILGSYDSELTPAEYSPQLTRRMREAEDMVQKVHSHSAEMEAQLSQALEELGGQKQRADMLEMELKMLKSQSSSAEQSFLFSREEADTLRLKVEELEGERSRLEEEKRMLEAQLERRALQGDYDQSRTKVLHMSLNPTSVARQRLREDHSQLQAECERLRGLLRAMERGGTVPADLEAAAASLPSSKEVAELKKQVESAELKNQRLKEVFQTKIQEFRKACYTLTGYQIDITTENQYRLTSLYAEHPGDCLIFKATSPSGSKMQLLETEFSHTVGELIEVHLRRQDSIPAFLSSLTLELFSRQTVA [MAD1L1]	48.4	47.8	-0.0768	0.414	0.454	0.361
MGTPASGRKRTPVKDRFSAEDEALSNIAREAEARLAAKRAARAEARDIRMRELERQQKEYSLHSFDRKWGQIQKWLEDSERARYSHRSSHHRPYLGVEDALSIRSVGSHRYDMFKDRSSRLSSLNHSYSHSHGMKKRSSDSHKDLLSGLYFDQRNYSSLRHSKPTSAYYTRQSSSLYSDPLATYKSDRASPTANSGLLRSASLASLYNGGLYNPYGPRTPSECSYYSSRISSARSSPGFTNDDTASIVSSDRASRGRRESVVSAADYFSRSNRRGSVVSEVDDISIPDLSSLDEKSDKQYAENYTRPSSRNSASATTPLSGNSSRRGSGDTSSLIDPDTSLSELRDIYDLKDQIQDVEGRYMQGLKELKESLSEVEEKYKKAMVSNAQLDNEKNNLIYQVDTLKDVIEEQEEQMAEFYRENEEKSKELERQKHMCSVLQHKMEELKEGLRQRDELIEEKQRMQQKIDTMTKEVFDLQETLLWKDKKIGALEKQKEYIACLRNERDMLREELADLQETVKTGEKHGLVIIPDGTPNGDVSHEPVAGAITVVSQEAAQVLESAGEGPLDVRLRKLAGEKEELLSQIRKLKLQLEEERQKCSRNDGTVGDLAGLQNGSDLQFIEMQRDANRQISEYKFKLSKAEQDITTLEQSISRLEGQVLRYKTAAENAEKVEDELKAEKRKLQRELRTALDKIEEMEMTNSHLAKRLEKMKANRTALLAQQ [LRRFIP2]	53.3	53.7	0.251	-3.39	-4.14	0.672
MVSRPEPEGEAMDAELAVAPPGCSHLGSFKVDNWKQNLRAIYQCFVWSGTAEARKRKAKSCICHVCGVHLNRLHSCLYCVFFGCFTKKHIHEHAKAKRHNLAIDLMYGGIYCFLCQDYIYDKDMEIIAKEEQRKAWKMQGVGEKFSTWEPTKRELELLKHNPKRRKITSNCTIGLRGLINLGNTCFMNCIVQALTHTPLLRDFFLSDRHRCEMQSPSSCLVCEMSSLFQEFYSGHRSPHIPYKLLHLVWTHARHLAGYEQQDAHEFLIAALDVLHRHCKGDDNGKKANNPNHCNCIIDQIFTGGLQSDVTCQVCHGVSTTIDPFWDISLDLPGSSTPFWPLSPGSEGNVVNGESHVSGTTTLTDCLRRFTRPEHLGSSAKIKCSGCHSYQESTKQLTMKKLPIVACFHLKRFEHSAKLRRKITTYVSFPLELDMTPFMASSKESRMNGQYQQPTDSLNNDNKYSLFAVVNHQGTLESGHYTSFIRQHKDQWFKCDDAIITKASIKDVLDSEGYLLFYHKQFLEYE [USP22]	48.1	49.6	-0.0588	0.773	1.56	-0.542
URB1		50.5	0.746	0.229	0.403	-1.55
MAAAAECDVVMAATEPELLDDQEAKREAETFKEQGNAYYAKKDYNEAYNYYTKAIDMCPKNASYYGNRAATLMMLGRFREALGDAQQSVRLDDSFVRGHLREGKCHLSLGNAMAACRSFQRALELDHKNAQAQQEFKNANAVMEYEKIAETDFEKRDFRKVVFCMDRALEFAPACHRFKILKAECLAMLGRYPEAQSVASDILRMDSTNADALYVRGLCLYYEDCIEKAVQFFVQALRMAPDHEKACIACRNAKALKAKKEDGNKAFKEGNYKLAYELYTEALGIDPNNIKTNAKLYCNRGTVNSKLRKLDDAIEDCTNAVKLDDTYIKAYLRRAQCYMDTEQYEEAVRDYEKVYQTEKTKEHKQLLKNAQLELKKSKRKDYYKILGVDKNASEDEIKKAYRKRALMHHPDRHSGASAEVQKEEEKKFKEVGEAFTILSDPKKKTRYDSGQDLDEEGMNMGDFDPNNIFKAFFGGPGGFSFEASGPGNFFFQFG [DNAJC7]	48.8	49.3	-0.0134	0.609	1.11	0.556
MASKCPKCDKTVYFAEKVSSLGKDWHKFCLKCERCSKTLTPGGHAEHDGKPFCHKPCYATLFGPKGVNIGGAGSYIYEKPLAEGPQVTGPIEVPAARAEERKASGPPKGPSRASSVTTFTGEPNTCPRCSKKVYFAEKVTSLGKDWHRPCLRCERCGKTLTPGGHAEHDGQPYCHKPCYGILFGPKGVNTGAVGSYIYDRDPEGKVQP [CRIP2]	55	53.2	0.0882	-3.58	-3.7	0.608
MFVQEEKIFAGKVLRLHICASDGAEWLEEATEDTSVEKLKERCLKHCAHGSLEDPKSITHHKLIHAASERVLSDARTILEENIQDQDVLLLIKKRAPSPLPKMADVSAEEKKKQDQKAPDKEAILRATANLPSYNMDRAAVQTNMRDFQTELRKILVSLIEVAQKLLALNPDAVELFKKANAMLDEDEDERVDEAALRQLTEMGFPENRATKALQLNHMSVPQAMEWLIEHAEDPTIDTPLPGQAPPEAEGATAAASEAAAGASATDEEARDELTEIFKKIRRKREFRADARAVISLMEMGFDEKEVIDALRVNNNQQNAACEWLLGDRKPSPEELDKGIDPDSPLFQAILDNPVVQLGLTNPKTLLAFEDMLENPLNSTQWMNDPETGPVMLQISRIFQTLNRT [UBAC1]	50.9	50.6	-0.0991	1.16	0.844	0.313
MIDSSKKQQQGFPEILTAGDFEPLKEKECLEGSNQKSLKEVLQLRLQQRRTREQLVDQGIMPPLKSPAAFHEQIKSLERARTENFLKHKIRSRPDRSELVRMHILEETFAEPSLQATQMKLKRARLADDLNEKIAQRPGPMELVEKNILPVDSSVKEAIIGVGKEDYPHTQGDFSFDEDSSDALSPDQPASQESQGSAASPSEPKVSESPSPVTTNTPAQFASVSPTVPEFLKTPPTADQPPPRPAAPVLPTNTVSSAKPGPALVKQSHPKNPNDKHRSKKCKDPKPRVKKLKYHQYIPPDQKGEKNEPQMDSNYARLLQQQQLFLQLQILSQQKQHYNYQTILPAPFKPLNDKNSNSGNSALNNATPNTPRQNTSTPVRKPGPLPSSLDDLKVSELKTELKLRGLPVSGTKPDLIERLKPYQEVNSSGLAAGGIVAVSSSAIVTSNPEVTVALPVTTLHNTVTSSVSTLKAELPPTGTSNATRVENVHSPLPISPSPSEQSSLSTDDTNMADTFTEIMTMMSPSQFLSSSPLRMTNNEDSLSPTSSTLSNLELDAAEKDRKLQEKEKQIEELKRKLEQEQKLVEVLKMQLEVEKRGQQQRPLEAQPSAPGHSVKSDQKHGSLGSSIKDEASLPDCSSSRQPIPVASHAVGQPVSTGGQTLVAKKAVVIKQEVPVGQAEQQSVVSQFYVSSQGQPPPAVVAQPQALLTTQTAQLLLPVSIQGSSVTSVQLPVGSLKLQTSPQAGMQTQPQIATAAQIPTAALASGLAPTVPQTQDTFPQHVLSQPQQVRKVFTNSASSNTVLPYQRHPAPAVQQPFINKASNSVLQSRNAPLPSLQNGPNTPNKPSSPPPPQQFVVQHSLFGSPVAKTKDPPRYEEAIKQTRSTQAPLPEISNAHSQQMDDLFDILIKSGEISLPIKEEPSPISKMRPVTASITTMPVNTVVSRPPPQVQMAPPVSLEPMGSLSASLENQLEAFLDGTLPSANEIPPLQSSSEDREPFSLIEDLQNDLLSHSGMLDHSHSPMETSETQFAAGTPCLSLDLSDSNLDNMEWLDITMPNSSSGLTPLSTTAPSMFSADFLDPQDLPLPWD [MKL2]	52.5	53	-0.304	1.45	3.81	0.208
MAASGEPQRQWQEEVAAVVVVGSCMTDLVSLTSRLPKTGETIHGHKFFIGFGGKGANQCVQAARLGAMTSMVCKVGKDSFGNDYIENLKQNDISTEFTYQTKDAATGTASIIVNNEGQNIIVIVAGANLLLNTEDLRAAANVISRAKVMVCQLEITPATSLEALTMARRSGVKTLFNPAPAIADLDPQFYTLSDVFCCNESEAEILTGLTVGSAADAGEAALVLLKRGCQVVIITLGAEGCVVLSQTEPEPKHIPTEKVKAVDTTGAGDSFVGALAFYLAYYPNLSLEDMLNRSNFIAAVSVQAAGTQSSYPYKKDLPLTLF [RBKS]	57.9	54.8	-0.0848	-2.59	-2.4	0.229
IRF2BP2	53	52.6	-0.0308	-0.348	-1.16	0.391
SAMD9	47.5	49.2	-0.171	0.5	1.68	-0.156
MEEECRVLSIQSHVIRGYVGNRAATFPLQVLGFEIDAVNSVQFSNHTGYAHWKGQVLNSDELQELYEGLRLNNMNKYDYVLTGYTRDKSFLAMVVDIVQELKQQNPRLVYVCDPVLGDKWDGEGSMYVPEDLLPVYKEKVVPLADIITPNQFEAELLSGRKIHSQEEALRVMDMLHSMGPDTVVITSSDLPSPQGSNYLIVLGSQRRRNPAGSVVMERIRMDIRKVDAVFVGTGDLFAAMLLAWTHKHPNNLKVACEKTVSTLHHVLQRTIQCAKAQAGEGVRPSPMQLELRMVQSKRDIEDPEIVVQATVL [PDXK]	55.5	56.3	-0.0576	0.134	0.0482	0.315
LRBA	51.2	51.2	-0.148	-0.555	-0.768	-0.115
KIF13A	51.9	51.4	-0.102	-0.212	-0.151	-0.0515

Source: the supplement of paper PMC5998384
